Consider three molecules from CN112457402A (BEIJING NIUAMBO BIOTECHNOLOGY CO LTD, dated 2021).

The target of this experiment is T1, Human CEACAM6 Protein, Human, Recombinant (His Tag) (human, UniProt P40199 35-320, biotinylated in Example 6 (Bio-CEACAM6), site not stated).
T1 construct: Bought recombinant antigen; also called CEACAM6抗原; 人CEACAM6抗原
T1 sequence (looked up): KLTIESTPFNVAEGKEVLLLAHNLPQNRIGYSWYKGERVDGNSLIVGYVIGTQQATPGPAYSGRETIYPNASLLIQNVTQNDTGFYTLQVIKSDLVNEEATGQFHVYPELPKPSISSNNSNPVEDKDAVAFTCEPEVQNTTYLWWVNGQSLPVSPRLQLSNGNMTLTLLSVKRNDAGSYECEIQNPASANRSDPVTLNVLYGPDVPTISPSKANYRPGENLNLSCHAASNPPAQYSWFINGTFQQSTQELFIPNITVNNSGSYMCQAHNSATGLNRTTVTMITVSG
Briefly: phage ELISA, phage-displayed VHH supernatant on coated CEACAM6.

Where a chain is given by its changes, count along the chain named.

B1: 单域抗体NBC4 (VHH)
VHH: HVQLVESGGGLVQAGGSLRLSCAVSGSIFSNDVMGWYRQAPGKQRELVAFITNGGVAHSKDPEKGRFTISRDNGKNTVYLQMNSLKPDDTAVYYCNVRSLVERSREYWGQGTQVTVSS
With B1, the binding result was “binds”.

B2: 单域抗体NBC6 (VHH)
VHH: B1 VHH with H1Q, Q3K, V5E, G54E, E63V
In the case of B2, the binding result is listed as “binds”.

B3: 单域抗体NBC5 (VHH)
VHH: QVKLEESGGGLVQAGGSLRLSCAASGDIDRNDVMHWYRQAPGKQRELVAWIANNGATNYADSVKGRFTISRDNAKNTVYLQMNSLKPEDTAVYYCNVRSLVRRSRDYWGQGTQVTVSS
With B3, the binding result is listed as “binds”.
